B1: Dynamin-binding protein, residues 242 to 304; numbered along this chain, Q6XZF7 (parent)
chain: EEPGTYGVALYRFQALEPNELDFEVGDKIRILATLEDGWLEGSLKGRTGIFPYRFVKLCPDTR

Variants of: B1
Assay: abundance fitness (aPCA) (normalised: wild type 0, dead -1); higher = more abundant; growth selection in yeast, the domain comes from the species named
Conditions: Homo sapiens

Abundance fitness, by site and new letter:
R47: D -0.743, G -0.604, K 0.115, C -0.578, V -0.477, M -0.689, P -1.09, E 0.018, Y -0.282, F -0.713, W -0.676, Q -0.588, H -0.283, A -0.552, L -0.453, T -0.678
P52: Y -0.569, D -0.817, I -0.741, V -0.816, N -0.767, T -0.783, F -0.826, R -0.855, K -0.794, G -0.534, M -0.401, L -0.567, H -0.734, W -0.583, S -0.85, C -0.7, A -0.68, Q -0.912
G42: K -0.892, V -0.575, S -0.846, C -0.859, Y -0.924, N -0.891, A -0.702, L -0.45, I -0.707, W -0.506, F -0.745, R -0.84, H -0.282, T -0.997, P -0.872, D -0.578, M -0.987
I50: S -0.541, C -0.275, G -0.823, N -0.43, L -0.383, A -0.379, W -0.693, T -0.306, H -0.681, P -0.973, K 0.153, E -0.341, D -0.91, F -0.598, Q -0.093, M -0.298, R 0.138, Y -0.533
K45: N 0.037, C -0.429, E 0.013, G -0.113, F -0.32, D 0.104, M -0.317, R -0.168, T -0.791, A -0.115, H 0.081, V -0.728, S -0.296, L -0.502, I -0.696, Q -0.157, Y -0.347, P -0.429
S43: Q -0.133, P -0.945, A -0.106, F -0.226, V -0.326, M -0.127, R -0.346, H -0.373, K -0.148, C -0.245, L -0.368, I -0.539, N -0.308, W -0.393, E 0.219, D -0.32, Y -0.085
F55: D -0.621, L -0.126, E -0.67, K -0.748, C -0.075, A -0.091, H -0.189
R54: W -0.292, H 0.027, I -0.545, M -0.583, Q -0.008, T -0.24, G -0.034, Y -0.286, E -0.057, D -0.052, A -0.049, V -0.07, P -0.525, F -0.261, C -0.373, L -0.544, N 0.238, S 0.046
L35: V -0.203, R 0.13, Q 0.009, Y -0.187, S -0.241, M -0.413, W -0.642, N -0.544, K 0.137, I -0.131, T -0.339, H -0.114
L40: W -0.473, T -0.394, K -1.11, Q -0.312, Y -0.259, C 0.113, F -0.393, A 0.18, I -0.244, P -0.642, R -0.627, V 0.092, M -0.074, S -0.325, N -0.784, G -0.383
E41: H -0.072, G -0.76, S -0.116, I -0.465, W 0.056, P -0.669, L -0.256, M 0.073, Q -0.064, D -0.732, N -0.527, K 0.017, C -0.115, Y -0.274, R -0.019
G38: N -0.539, P -1.06, M -0.803, I -0.769, A -0.842, T -0.983, W -1.05, H -0.454, E -0.633, K -1.06, R -0.482, V -0.668, S -0.545, F -0.71, L -0.61
T48: R -0.105, G -0.685, C -0.286, D -0.818, L -0.436, S -0.351, V -0.075, W -0.977, P -0.867, K 0.112, F -0.49, A -0.699, N -0.453, I -0.214, M -0.916, Q -0.203
L44: I -0.133, Y -0.393, N -0.567, W -0.506, T -0.416, M -0.58, D -0.385, G -0.868, R -0.367, A -0.399, H -0.425, P -0.575, S -0.313, C -0.159, V 0.012
D37: I -0.89, M -1.02, L -0.663, N -0.116, R -0.59, Q -0.298, G -0.073, F -0.56, V -0.561, C -0.195, K -0.287, E -0.407, T -0.361, A -0.452, S -0.257, P -0.476, H -0.274
F51: V -0.224, L -0.492, C -0.748, E -0.854, K -0.623, H -0.792, W -0.59, G -0.85, R -0.655, P -0.524, T -0.681, I -0.752, D -0.862, N -0.791, Y -0.497, S -0.794, A -0.919
E36: Q -0.312, A 0.027, T -0.277, W -0.612, R -0.331, C -0.434, K -0.099, L -0.698, G -0.167, I -1.02, F -0.711, V -0.777, N -0.156, P -0.171, S -0.212
G49: F -0.735, D -0.574, P -1.08, T -0.829, H -0.807, I -0.59, M -0.711, Y -0.805, V -0.782, C -0.422, L -0.887, W -0.601, S -0.504, N -0.499
W39: F -0.168, H -0.749, G -0.714, N -0.406, T -0.492, D -0.661, P -0.738, S -0.56, K -0.395, A -0.56, E -0.379, Q -0.285, L -0.184, R -0.144, M -0.057, I -0.546, Y -0.135
G46: I -0.711, M -0.769, D -0.444, V -0.6, S -0.474, Y -0.802, A -0.647, K -0.757, L -0.749, E -0.473, P -0.611, W -0.725, Q -0.753, N -0.326, H -0.73, F -0.687, R -0.612, C -0.719
Y53: E 0.282, N 0.138, Q 0.154, W 0.108, R 0.211, V 0.263, M 0.265, P 0.37, L 0.077, K 0.251, F -0.079, I 0.048, C 0.203, H -0.006, S 0.329, D 0.227, A 0.338, T 0.223

— the Human Domainome abundance scans (Beltran et al. 2025)
